Test: soluble on expression in E. coli; label from the status in PepcDB or PDB records

| Sequence | soluble on expression in E. coli |
| --- | --- |
| MLVNFIKNFIPHRFYSSKTEIPVVRLHGAIIDSSSSIARTLSLGRCANLLDKAFAYKKAPAVAVIINSPGGSPVQSRLIFKRIRDLAEEKKKQVLMFIEDIAASGGYMIACAGDEIFADPSSIVGSIGVVSASFGFPELLKKIGIERRVYTAGKNKVTLDPFQPEKKTDIEHLKSLQLEVHKTFIDLVKERRAEKLSNDPNIFTGMFWSGKKSVELGLIDGLNDVRSVIKERFGDDTKLRLIIPPKSLFGPKTPSGVTAHAVHTAIDSALMVAQERALWQYYGLLEHHHHHH | soluble |
| MLVPLYDVMCRALGINGKTAGSAYSGEQQVDVGREVKVQFMTSNNIDMVWEFRSAGDQLVVHPGAVNQMVFYARNPSDKPMTAQAIPSIAPAEAAAYFHKTECFCFTQQVLQPGESIEMPVRFIVDRDLPKDVRHVTLAYTLFDI | soluble |
| MLVRRLFQPSTLHWAWRTTALNHPLGRHQGGLRWTHSGGRSYRAVIFDTGGVLVPSPGTVAVGWEVQNHVPSGTIVKAFIRGGDSGPWIRFIKGEITTEHFLEEFGRLCSEIAKTSVPVSSYFSLLTSEQVTKQFPVMTQAISQIRAKGLQTAVLTNNFHLSSGESFLPLDRKQFDVVVESCLEGICKPDPRIFQLCLQRLSLQPSEAIFLDDLGSNLKVAASLGIHTIKVDRPETAVKELEALLGFPLHLGVPNTRPVRKTMAIPQDALEKYLKGLLGTHSTGPMELLQFDHGQSNPTYYIRLADRQLVLRKKPSGTLLPSAHAIEREFRIMKALANAGVPVPTVLDLCEDSSIIGTPFYLMEYCPGIIYKDPSLPGLEPSRREAIYTAMNQVLCRIHSVDLQATSLDSFGKQGDYIPRQVQTWTKQYRAAETSSIPAMERLIQWLPLHLPRQQRTTLVHGDFRLDNLIFHPEKAEVLAVLDWELSTLGDPFADVAYSCLAYYLPSSFPILRGFRDQDVTKLGIPTVEEYFRMYCLNMGIPPIDNWNFYMAFSFFRVAAILQGVYKRSLTGQASSATAQQSGKLTESMAELAWDFATKEGFRVFKEMPATKTLSRSYHAWAGPRSPRTPKGVRGHSTVAAASPSHEAKGGLVISPEGLSPAVRKLYEQLVQFIEQKVYPLEPELQRHQASADRWSPSPLIEDLKEKAKAEGLWNLFLPLETDPEKKYGAGLTNVEYAHLCEVMGMSLYASEIFNCSAPDTGNMEILVRYGTEEQKARWLVPLLEGRIRSCFAMTEPQVASSDASNIEASIKEEDGCYVINGHKWWTSGILDPRCKLCVFMGKTDPQAPRHQQQSMLLVPMDSPGITVIRPLSVFGLEDPPGGHGEVRFKDVRVPKENILLGPGRGFEIAQGRLGPGRIHHCMRLIGYSERALALMKTRVMSRTAFGKPLVEQGTILADIARSRVEIEQARLLVLKAAHLMDVAGNKTAALDIAMIKMVVPSMAYHVIDRAIQAFGAAGLSSDYPLAQFFGWARALRFADGPDEVHQLTVAKMELKNQSRMQEPAVPRV | soluble |
| MLWGRREFVMREEDTVCVGSDGLQYCKVCGEAKEAFFPEGGFMGMKKHSRQCACDRKAYEEEQKYFKDKEHRELVSRNTSICFDESRMEEWTFENADMSDAVMHKAKSYVDNWEEMKRNHIGCLFWGPVGTGKSFIAGCIANELLKQEVTVKMTNFNTIIDDIFPLADKTEYINALASYQLLIIDDLGVERNSEYALGIIFSVIDRRIRSGRPLIITTNLPLNEIKSETMLDKRRIYDRILEMCTPMYVGGASKREAIASMKMEKAKTLLNTNKGEE | not soluble |
| MLWRKRLFAHLYPGLSARHEALVAERKRALFREALRRARPERVLEIGPGPGTNLAHLPEGVAYLALEPNPFFHPRLREEARKRGLALTLLPGRAEAIPLPGGSVDLVVATLVLCSVADPEKAIEEVHRVLRPGGAYLFLEHVAAPKRTPLRFLQEVATPFFAFFGDGCHPNRETLALIQARFPRVEAEAFPLPLPVVAPHVAGLAFKEGGSGGSLQGPWA | soluble |
| MLYINSFLDRMGEIIRGEKSVEEADKLLDQKNIFEMFRSDCEEILNLYKSGKAEKEEVQRNFYLLKTYVVSQLSIHFERLKEFAESKGFKIEKKLDPEVINEIALYIDRVEKEV | soluble |
| MLYIPQFSIYFCLGYLLLFCKISNAVKQSWEINQELITEANKEHTVFGDMLLTPAQLIRYENSKDSDLSIRGVSIKGSSMNRWSNNIVPYVISPQYSPAQKQILVSSLRYFERVSCFKFVERTTQNDYLFIVPLDGCYSYVGKIGGRQTLSLAADCIADYIIWHEMMHAIGFEHEHQRPDRDSFIRVDYANVIPGQMINFDKLKTSHVEYPDIYDFKSIMHYDGYAFGRVDTARRVRLATMTPLKPGVTLEDNMKFTATDIEKLNRLGQCGARGGQYSNQGVVASTCQDVATAVSCEGNRRRGMCKNPFYKQMMIKSCQKTCRLCSYTRMIDEDDDLTPNTTVKSVKCEDKHPRCDIYSHNGFCTLPFYDDVRYQLCAKTCNLC | not soluble |
| MMATQTLSIDSYQDGQQMQVVTELKTEQDPNCSDPDAEGVSPPPIESQTPMDADKQAIYRHPLFPLLALLFEKCEQSTQGSEGTTSASFDVDIENFVRKQEKDGKPFFCEDPETDNLMVKAIQVLRIHLLELEKVNELCKDFCSRYIACLKTKMNSETLLSGEPGSPYSPVQSQQIQSAITGTLSPQGIVVPASALQQGNVTMATVAGGTVYQPVTVVTPQGQVVTQALSPGTIRIQNSQLQLQLNQDLSILHQEDGSSKNKRGVLPKHATNVMRSWLFQHIGHPYPTEDEKKQIAAQTNLTLLQVNNWFINARRRILQPMLDSSCSETPKTKKKPAQNRPVQRFWPDSLASGVAQATPSELAMSEGAVVTITTPVNMNVDSLQSLSSDGATLAVQQVMMAGQSEDESVDSTEDEGGALAPTHISGLVLENSDSLQ | not soluble |
| MMDAMTDPITFAATAAGRDAAHPLRDISFGEIGIATERKPDGTIYVRSTTTLTDYPVRITDRLHHFAETAPDRVFMAERNGEGGWRRISYAEMLRAAQTIASALIARGLSAERPVMILSGNSIDHAMVMFGALYAGVAMCPVSPPYSLVSKDYGKLRHIVGLLTPGLIFADDITAFAPAILATVPEDVELAATRGEVKGRKVTSLAELLATPEHPELAAKHEAIGHDTIAKFLLTSGSTGNPKAVINTQRMICANQVMIREAMAFLKDEPPVIVDWLPWNHTFGGNHNIGLTLFNGGSMYIDDGKPTPAGIASTIRNLREIAPTVYFNVPKGYESLLPVLREDQQLRKLFFSRLHAMFFSGASLAAHVWNGLDEVAVAETGARVPMLTGLGATETAPFFMSVTPQTSRSGHVGLPVPGNEAKLVPNNGKLEVRAKGPNITPGYWRAPELTDKAFDEEGFYKLNDALKPVDANDLSRGFDFDGRISEDFKLASGTWVSVGPLRAKFIAACASLVRDVVIAGLDRDYVTALAILDPDGCKLINATLPLEDLAGMAADHLIREAFRERFATLLTQATGSSNRVTRAVLLGEPLSIDKGEITDKGSVNQRAVLEYRASLIADLYADPPPAHVIALELEHHHHHH | soluble |
| MMDITTLDQFKDEIYGVKGTPRRDNLERELETLRIGVQIRNARQKKEMTQAQLAERINKKRTFISKVENDGGNLTLKTLIDIVERGLGGKLNIEVKI | not soluble |
| MMEENKRVLLGMSGGTDSSVAAMRLLEAGYEVTGVTFRFYELNDSTEYLEDARHLAERLGIRHITYDAREIFRKQIIEYFVHEYMVGHTPVPCTLCNNYLKWPLLSKIADEMGIFYIATGHYVRKVKVDDTCYITYAADSDKDQTFFLWGLKQDILRRMLLPMGDITKVEARAFAAERGFQKVAVKRDSLGVCFCPMDYRSFLKMWLVSNCQPQVSVGQPQVSAGQTWSAEVRRGRFVDEKGDFIAWHEGYPFYTVGQRRGLGIHLNRAVFVKEIRPEKNEVVLASLQALEKTEMLLKDWNIVNRERLLGHADIIVKIRYRKQENHCTVTVTLDNFLHVQLHEPLTAIASGQAAAFYKDGLLLGGGIIVE | not soluble |
| MMEITRETMSFTSTTPSARAPLGGRTTGNVTSQDRMLKIVTEMRSGAGSGLSPFGQNAASTIRDSREREKKEMSDLNDRLASYIEKVRFLEAQNRKLAADLDALRSKWGKDTHNIRNMYEGELVDAQKLIDETNKQRKDMEGQLKKMQDELAEMRRKLEDATKGREQDRAKIDALLVTLSNLEAEISLLKRRIAQLEDEVKRIKQENQRLLSELQRARTDLDQETLNRIDYQNQVQTLLEEIDFLRRVHDNEIKELQTLASRDTTPENREFFKNELSSAIRDIREEYDQVNNVHRNDMESWYRLKVQEIQTQSARQNMEQGYAKEEVKRLRTQLSDLRGKLADLESRNSLLEKQIQELNYQLEDDQRSYEAALNDRDSQIRKMREECQALMVELQMLLDTKQTLDAEIAIYRKMLEGEENRAGLKQLVEQVVKTHAITQETDTETMRVVKGETASRQSFQRSAKGNVSIHEASPDGKFIVLQNTHRAKDEAIGEWKLKRRIDGKRENVYTLPRDFVLRAGKTLKIFARNQGVASPPDQLVYDAEDSFGSGNNVQTILFNKEGEERATHIQRQSTA | not soluble |
| MMEQKQEIHATVSINNVQYEVIKNFRDGFSEEAFKERYAEILNKYDYIVGDWGYEQLRLRGFFDDSNQRATYDTKISTLTEYLYEYCNFGCAHFVLRKVKK | not soluble |
| MMHQLYPQVAHHYRYELNKDMHIAAAHFIPHEAAGSCANVHGHTYIVNVTIAGDELDESGFLVNFQTLKQLVHRKLDHTLLNDHSDWFDGHDPNRFPTSEVVARTIYETIQRYLDTLPHKPKCLQVFVRETPTSYVVYRPKAGER | soluble |
| MMIFRFVTTLAASLPLLTFAAPISFSHAKNEAVKIYRDHPVSFYCGCEIRWQGKKGIPDLESCGYQVRKQENRASRIEWEHVVPAWQFGHQLQCWQQGGRKNCTRTSPEFNQMEADLHNLTPAIGEVNGNRSNFSFSQWNGIDGVTYGQCEMQVNFKERTAMPPERARGAIARTYLYMSEQYGLRLSKAQNQLMQAWNNQYPVSEWECVRDQKIEKVQGNSNRFVREQCPN | soluble |
| MMIMNNFDEKKLIQEFSKIQSELSPRIKLENNFQIEEIQFIAGVDLAYWNVNKTKYGTCCIVIIDYGTKEVVEKVYSYGEIPIPYIPGFLAFRELPLIIEAVKKLTKQPDIYFFDGNGYLHYRHMGIATHASFLLNKPTIGVAKSYLKIRDVDFIMPENLKGSYTDIVINNEVYGRTLRTTKNVKPIFVSCGNWIDLDTSTEIVMNCINNESRLPIPVRLADLETHKMRKKLMEGLEHHHHHH | not soluble |
| MMIRGIRGATTVERDTEEEILQKTKQLLEKIIEENHTKPEDVVQMLLSATPDLHAVFPAKAVRELSGWQYVPVTCMQEMDVTGGLKKCIRVMMTVQTDVPQDQIRHVYLEKAVVLRPDLSLTKNTEL | soluble |
| MMIYCARIVAIGLFVADGLTDKMLITFDSNGPKDCLDYSLSLEPSFREESLMILPGDRLLLAGHDYLVTSVGKGAQQALFELGHLTLVFNGDLNACHVGAVHLSGPVPKLRDLHGNLVIEEGRP | soluble |
| MMKHVFQKGKDTSKPVLLLLHGTGGNELDLLPLAEIVDSEASVLSVRGNVLENGMPRFFRRLAEGIFDEEDLIFRTKELNEFLDEAAKEYKFDRNNIVAIGYSNGANIAASLLFHYENALKGAVLHHPMVPRRGMQLANLAGKSVFIAAGTNDPICSSAESEELKVLLENANANVTMHWENRGHQLTMGEVEKAKEWYDKAF | soluble |
| MMKKSSDCTEILVGKAASMDGSTIVARNEDGYGPINPIKFVVHPAVDQTGASFTSAVTGVEVPLPDHAYRYTGTPQADQSDGQYEEAGINELNVGMSATETTATNARVLGYDPLVDDGINEEAMITLVLPYIKSAKEGAARLGALIEKYGTGESNSIAFNDQNDVWYLETAGGHHWAAMRLPEDTYAIAPNQTLMQTVDLQDTDNFLVASDLVDFVAQHHLNPTPDTFNFREIFGTHGEDDAYYNTPRTWYGQKLFNPEITDQQPTDQDMPFTRKPAKKLAIEDVQFFLSSHYNGTPYDPFGTYASGSAADQRKYRPIAMDRNQCSSILQIRNDVPADHAAIQWIAMGFFAYAPYVPFFTNITDTPADYQSTTAAVDVANVYWLNKTLSVLIEPHFHDYVEAVNAFRDGCQSYARSRVAATDAAVSGNVSAFLTQSNQITAGEISKRTRELFDTIVKHGLLLSKTAWEKGQNL | not soluble |
